Seven proteins from paper PMC11966277 can be followed below.

Changes are numbered by the printed parent chain. Names and notes keep the numbering of the source.

B1: Oxalate decarboxylase (OxDC) (Bacillus subtilis subsp. subtilis str. 168; H279D/T263E) (protein)
chain: MKKQNDIPQPIRGDKGATVKIPRNIERDRQNPDMLVPPETDHGTVSNMKFSFSDTHNRLEKGGYAREVTVRELPISENLASVNMRLKPGAIRELHWHKEAEWAYMIYGSARVTIVDEKGRSFIDDVGEGDLWYFPSGLPHSIQALEEGAEFLLVFDDGSFSENSTFQLTDWLAHTPKEVIAANFGVTKEEISNLPGKEKYIFENQLPGSLKDDIVEGPNGEVPYPFTYRLLEQEPIESEGGKVYIADSTNFKVSKTIASALVEVEPGAMRELHWHPNTDEWQYYISGKARMTVFASDGHARTFNYQAGDVGYVPFAMGHYVENIGDEPLVFLEIFKDDHYADVSLNQWLAMLPETFVQAHLDLGKDFTDVLSKEKHPVVKKKCSK
B2: Oxalate decarboxylase (OxDC) (Bacillus subtilis subsp. subtilis str. 168) (protein)
chain: B1 chain with E263T, D279H
B3: Oxalate decarboxylase (OxDC) (Bacillus subtilis subsp. subtilis str. 168; I191F) (protein)
chain: B1 chain with I191F, E263T, D279H
B4: Oxalate decarboxylase (OxDC) (Bacillus subtilis subsp. subtilis str. 168; H279D/I191F) (protein)
chain: B1 chain with I191F, E263T
B5: Oxalate decarboxylase (OxDC) (Bacillus subtilis subsp. subtilis str. 168; H279D) (protein)
chain: B1 chain with E263T
B6: Oxalate decarboxylase (OxDC) (Bacillus subtilis subsp. subtilis str. 168; Y244R) (protein)
chain: B1 chain with Y244R, E263T, D279H
B7: Oxalate decarboxylase (OxDC) (Bacillus subtilis subsp. subtilis str. 168; I191F/T263E) (protein)
chain: B1 chain with I191F, D279H

Substrate in this series: O=C(O)C(=O)O
Nature of the series: purified protein. The conditions noted are these: pH 4.2 (optimum), 52 mM sodium acetate, 140 mM NaCl, 37 °C, potassium oxalate 0-150 mM, Mn enzyme.
For B1, the Michaelis-Menten constant (Km) is 5 ± 1 mM, the kcat is 111 s⁻¹ and the kcat/Km was determined as 22000 M⁻¹ s⁻¹.
Taken in the same sequence, the figures for B2 were 7 ± 2 mM, 103 s⁻¹ and 15000 M⁻¹ s⁻¹.
In the case of B3, the Km worked out at 7 ± 2 mM, the kcat was 101 s⁻¹ and the specificity constant (kcat/Km) worked out at 14000 M⁻¹ s⁻¹.
For B4 the same measures were 5 ± 2 mM, 110 s⁻¹ and 22000 M⁻¹ s⁻¹.
On to B5, for which the Michaelis constant (Km) is on record as 6 ± 2 mM, the kcat was found to be 58 s⁻¹ and the kcat/Km amounted to 10000 M⁻¹ s⁻¹.
B6: the Km is 5 ± 1 mM, the kcat came to 95 s⁻¹ and the specificity constant (kcat/Km) came out at 19000 M⁻¹ s⁻¹.
Take B7: the Km worked out at 5 ± 1 mM, the kcat was found to be 37 s⁻¹ and the kcat/Km was 7000 M⁻¹ s⁻¹.
